Results: PMC9190237 (Biochemistry, 2022)
Numbering of substitutions follows the chain as printed. Where no end group is shown, it is not given here. FAM = fluorescein

T1: UHRF1^PHD (Homo sapiens, UniProt Q96T88)
T1 sequence (Q96T88 298-366): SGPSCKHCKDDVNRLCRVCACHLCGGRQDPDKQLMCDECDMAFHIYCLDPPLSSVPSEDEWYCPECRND

T2: GST-UHRF1^PHD (residues 298-366) (human (by the printed accession), UniProt Q96T88-1 298-366)
T2 sequence (looked up): T1 sequence (Q96T88 298-366)

T3: UHRF1^TTD-PHD (His-tagged TTD-PHD domains of UHRF1; residues 133-366) (human (by the printed accession), UniProt Q96T88-1 133-366)
T3 sequence (looked up): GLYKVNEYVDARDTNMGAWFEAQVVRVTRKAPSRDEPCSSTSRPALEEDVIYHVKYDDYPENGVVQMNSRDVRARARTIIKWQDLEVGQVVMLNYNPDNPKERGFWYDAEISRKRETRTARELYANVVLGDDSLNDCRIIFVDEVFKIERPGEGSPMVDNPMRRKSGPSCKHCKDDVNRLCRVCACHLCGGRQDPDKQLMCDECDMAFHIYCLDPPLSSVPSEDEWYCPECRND

T4: UHRF1^TTD (TTD construct alone; residues 127-285) (human (by the printed accession), UniProt Q96T88-1 127-285)
T4 sequence (looked up): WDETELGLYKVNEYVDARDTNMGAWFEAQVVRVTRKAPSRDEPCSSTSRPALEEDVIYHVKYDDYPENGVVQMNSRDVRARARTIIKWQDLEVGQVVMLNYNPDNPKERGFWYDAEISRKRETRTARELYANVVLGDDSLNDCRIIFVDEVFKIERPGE

T5: Full-length UHRF1 (N-terminal 6xHis tag) (human (by the printed accession), UniProt Q96T88-1 1-793)
T5 sequence (looked up): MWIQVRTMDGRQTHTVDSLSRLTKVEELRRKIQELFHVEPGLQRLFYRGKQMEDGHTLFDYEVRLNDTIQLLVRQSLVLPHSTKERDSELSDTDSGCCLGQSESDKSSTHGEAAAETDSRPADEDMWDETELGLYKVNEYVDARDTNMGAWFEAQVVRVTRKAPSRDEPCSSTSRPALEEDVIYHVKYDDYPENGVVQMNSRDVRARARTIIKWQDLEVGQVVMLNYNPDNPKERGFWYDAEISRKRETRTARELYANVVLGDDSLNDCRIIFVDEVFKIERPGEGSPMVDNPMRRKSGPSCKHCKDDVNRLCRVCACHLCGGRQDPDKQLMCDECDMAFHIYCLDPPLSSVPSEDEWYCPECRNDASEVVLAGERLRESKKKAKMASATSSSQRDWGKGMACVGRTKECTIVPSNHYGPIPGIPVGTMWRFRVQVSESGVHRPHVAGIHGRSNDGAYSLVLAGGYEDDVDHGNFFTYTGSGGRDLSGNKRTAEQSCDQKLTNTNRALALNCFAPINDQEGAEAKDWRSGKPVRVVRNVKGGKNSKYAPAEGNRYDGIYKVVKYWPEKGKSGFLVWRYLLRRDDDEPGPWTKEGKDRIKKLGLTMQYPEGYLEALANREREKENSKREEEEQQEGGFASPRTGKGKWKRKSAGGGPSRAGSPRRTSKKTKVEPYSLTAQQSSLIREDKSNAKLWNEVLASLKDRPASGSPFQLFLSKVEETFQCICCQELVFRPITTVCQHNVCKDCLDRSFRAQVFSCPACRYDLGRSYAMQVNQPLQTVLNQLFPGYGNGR

B1: GST-UHRF1^(PHD; 337A) (domain or fragment, human (by the printed accession), UniProt Q96T88-1 298-366, looked up)
chain: T1 sequence (Q96T88 298-366) with D40A
B2: Unmodified H3^(FAM) peptide (ARTKQTARKSTGG{K-FAM}) (peptide)
peptide: ARTKQTARKSTGGK(FAM)

Key:
[1] = biological target: UHRF1^PHD (as used for tryptophan fluorescence) (human (by the printed accession)); experiment: intrinsic tryptophan fluorescence quenching
UHRF1^PHD = biological target: T1, UHRF1^PHD; experiment: Intrinsic tryptophan; type: binding; details: 5 μM peptide, 1 μM UHRF1^PHD
[2] = biological target: B2; experiment: fluorescence polarisation
[3] = biological target: T2, GST-UHRF1^PHD (residues 298-366); experiment: fluorescence polarisation
[4] = biological target: T3, UHRF1^TTD-PHD (His-tagged TTD-PHD …); experiment: fluorescence polarisation
[5] = biological target: T3, UHRF1^TTD-PHD (His-tagged TTD-PHD …); experiment: fluorescence polarisation; remark: listed apart in the source
[6] = biological target: T4, UHRF1^TTD (TTD construct alone; …); experiment: fluorescence polarisation
[7] = biological target: T5, Full-length UHRF1 (N-terminal 6xHis tag); experiment: fluorescence polarisation
[8] = biological target: T3, UHRF1^TTD-PHD (His-tagged TTD-PHD …); experiment: AlphaScreen or HTRF

For “H3K9me3^(FAM) peptide (ARTKQTAR{K-me3}STGG{K-FAM})”, the percent quenching of W358 fluorescence [1] was 50%.

With “ARTKQTAR{K-me3}STGG{K-FAM} [H3K9me3^(FAM)]” the “W358 tryptophan fluorescence quenching of UHRF1^PHD” value (UHRF1^PHD) was ~ 50%.

With B1 the “fold impairment of binding against GST-UHRF1^PHD” value [2] was ~12 fold.

B2: binds [3]; binds [4].

ARTKQTARKSTGGK (trimethyl-lysine at K9; FAM (fluorescein) on K14) [H3K9me3^(FAM) peptide (ARTKQTAR{K-me3}STGG{K-FAM})]: binds [5]; binds [6]; binds [7].

ARTKQTARKSTGGKW (trimethyl-lysine at K9; biotin on K14) [H3K9me3^(Biotin) peptide (ARTKQTAR{K-me3}STGG{K-biotin}W)]: binds [8].

ARTKQTARKSTGGKW (trimethyl-lysine at K9) [H3K9me3 peptide (unlabeled; ARTKQTAR{K-me3}STGGKW)]: binds [8].

{FAM}-GKGKWKRKSAGGGPS [PBR^(FAM) peptide ({G-FAM}KGKWKRKSAGGGPS; UHRF1 polybasic region, residues 643-657)]: binds [6].
